Source: FireProtDB
Several values for one entry are separate records, joined by “and”; a condition that tells them apart may be missing. Identical values can stand only once.

B1: Aspartate aminotransferase, P00509 (parent)
chain: MFENITAAPADPILGLADLFRADERPGKINLGIGVYKDETGKTPVLTSVKKAEQYLLENETTKNYLGIDGIPEFGRCTQELLFGKGSALINDKRARTAQTPGGTGALRVAADFLAKNTSVKRVWVSNPSWPNHKSVFNSAGLEVREYAYYDAENHTLDFDALINSLNEAQAGDVVLFHGCCHNPTGIDPTLEQWQTLAQLSVEKGWLPLFDFAYQGFARGLEEDAEGLRAFAAMHKELIVASSYSKNFGLYNERVGACTLVAADSETVDRAFSQMKAAIRANYSNPPAHGASVVATILSNDALRAIWEQELTDMRQRIQRMRQLFVNTLQEKGANRDFSFIIKQNGMFSFSGLTKEQVLRLREEFGVYAVASGRVNVAGMTPDNMAPLCEAIVAVL
B2: Phosphoglycerate kinase, P18912 (parent)
chain: MNKKTIRDVDVRGKRVFCRVDFNVPMEQGAITDDTRIRAALPTIRYLIEHGAKVILASHLGRPKGKVVEELRLDAVAKRLGELLERPVAKTNEAVGDEVKAAVDRLNEGDVLLLENVRFYPGEEKNDPELAKAFAELADLYVNDAFGAAHRAHASTEGIAHYLPAVAGFLMEKELEVLGKALSNPDRPFTAIIGGAKVKDKIGVIDNLLEKVDNLIIGGGLAYTFVKALGHDVGKSLLEEDKIELAKSFMEKAKEKGVRFYMPVDVVVADRFANDANTKVVPIDAIPADWSALDIGPKTRELYRDVIRESKLVVWNGPMGVFEMDAFAHGTKAIAEALAEALDTYSVIGGGDSAAAVEKFGLADKMDHISTGGGASLEFMEGKQLPGVVALEDK
B3: Cyanovirin-N, P81180 (parent)
chain: LGKFSQTCYNSAIQGSVLTSTCERTNGGYNTSSIDLNSVIENVDGSLKWQPSNFIETCRNTQLAGSSELAAECKTRAQQFVSTKINLDDHIANIDGTLKYE
B4: DNA-Binding protein, P69542 (parent)
chain: MIKVEIKPSQAQFTTRSGVSRQGKPYSLNEQLCYVDLGNEYPVLVKITLDEGQPAYAPGLYTVHLSSFKVGQFGSLMIDRLRLVPAK
B5: Phosphocarrier protein HPr, P42013 (parent)
chain: MAEKTFKVVSDSGIHARPATILVQTASKFNSEIQLEYNGKTVNLKSIMGVMSLGIPKGATIKITAEGADAAEAMAALTDTLAKEGLAE
B6: Osteomodulin, Q99983 (parent)
chain: MGFLSPIYVIFFFFGVKVHCQYETYQWDEDYDQEPDDDYQTGFPFRQNVDYGVPFHQYTLGCVSECFCPTNFPSSMYCDNRKLKTIPNIPMHIQQLYLQFNEIEAVTANSFINATHLKEINLSHNKIKSQKIDYGVFAKLPNLLQLHLEHNNLEEFPFPLPKSLERLLLGYNEISKLQTNAMDGLVNLTMLDLCYNYLHDSLLKDKIFAKMEKLMQLNLCSNRLESMPPGLPSSLMYLSLENNSISSIPEKYFDKLPKLHTLRMSHNKLQDIPYNIFNLPNIVELSVGHNKLKQAFYIPRNLEHLYLQNNEIEKMNLTVMCPSIDPLHYHHLTYIRVDQNKLKEPISSYIFFCFPHIHTIYYGEQRSTNGQTIQLKTQVFRRFPDDDDESEDHDDPDNAHESPEQEGAEGHFDLHYYENQE
B7: V92L, O26594 (parent)
chain: MRCAFMKKYILIVMLALMVAGCVSEDGNYTYNEGVQDSNVDNPVNDSWTSDSQDKVNDTAEKKSSYEASGSCYHVVDGDTIDVEGVGRIRLVGVNTPERGQPGYREAKDFVKSMCLGRTVQLDIDDAKRHDRYGRVLAVVYVDGVNLNRELLRRGYAEVMYIPPSEFNPYGWT
B8: S121F, Q2YD82 (parent)
chain: MDCAEGRAANLPCNHSTISGNEYVYWYRQIHSQGPQYIIHGLKNNETNEMASLIITEDRKSSTLILPHATLRDTAVYYCIVYDYGQNFVFGPGTRLSVLPYIQNPDPAVYQLRDSKSSDKSVCLFTDFDSQTNVSQSKDSDVYITDKTVLDMRSMDFKSNSAVAWSNKSDFACANAFNNSIIPEDTFFPSPESSCDVKLVEKSFETDTNLNFQNLSVIGFRILLLKVAGFNLLMTLRLWSS

Variants of: B1
Settings: Escherichia coli (strain K12); pH 7.5; 25 °C; Urea; enzyme activity; potassium phosphate 20 mM; structure 1AMQ; whole UniProt chain shown

Variant | unfolding free energy [kcal/mol]
C180F | 8.4
C180S | 8.1

Variants of: B2
Settings: Geobacillus stearothermophilus; pH 7.2; 25 °C; GdnHCl; Fluorescence; TEA 50 mM; reversible: no; structure 1PHP; whole UniProt chain shown

Variant | unfolding free energy
I217A L221A | 5.7 kcal/mol and 9.6 kcal/mol

Variants of: B3
Settings: Nostoc ellipsosporum; pH 6; Thermal; CD; Sodium phosphate 10 mM; structure 1N02; whole UniProt chain shown

Variant | Tm [°C] | change of melting temperature, mutant - wild type (higher = more stable) [°C]
P51G | 50.2 | 1.7

Variants of: B4
Settings: Enterobacteria phage fd; pH 7; 25 °C; GdnHCl; CD; MOPS 50 mM; NaCl 100 mM; reversible: yes; structure 1VQB; whole UniProt chain shown

Variant | unfolding free energy [kcal/mol]
L32W | 2.8
T48V | 0
T62V | 1.3
K69M | 0.1
K24V | 0.8
E30M | 0.6

Variants of: B5
Settings: Geobacillus stearothermophilus; pH 7; 25 °C; Urea; CD; sodium phosphate 10 mM; reversible: yes; structure 1Y4Y; whole UniProt chain shown

Variant | ddG of mutation (higher = less stable) [kcal/mol] | denaturant m value [kcal/mol/M] | unfolding free energy [kcal/mol]
F29W | 0.86 | 1.06 | 7.37

Same assay, conditions: Geobacillus stearothermophilus; pH 7; Thermal; CD; sodium phosphate 10 mM; NaCl 750 mM; reversible: yes; structure 1Y4Y; whole UniProt chain shown

Variant | Tm [°C]
F29W | 85.3

Same assay, conditions: Geobacillus stearothermophilus; pH 7; Thermal; CD; sodium phosphate 10 mM; reversible: yes; structure 1Y4Y; whole UniProt chain shown

Variant | Tm [°C] | change of melting temperature, mutant - wild type (higher = more stable) [°C]
F29W | 83.7 | -4.4

Variants of: B6
Settings: Homo sapiens; pH 7.4; Thermal; DSC; PBS; transition: 2; structure 5YQ5; whole UniProt chain shown

Variant | Tm [°C]
E173R | 42.3
E284R E303R | 43.8
E225R | 41.8
D254R | 37
E303R | 43.3
E284R | 42.3
N278R | 38.5

Variants of: B7
Settings: Methanothermobacter thermautotrophicus (strain ATCC 29096 / DSM 1053 / JCM 10044 / NBRC 100330 / Delta H); pH 7; 20 °C; GdnHCl; Fluorescence; Sodium phosphate sodium chloride 25 mM 100 mM; whole UniProt chain shown

Variant | ddG of mutation (higher = less stable) [kcal/mol] | denaturant m value [kcal/mol/M] | denaturant midpoint (higher = more stable) [M] | unfolding free energy [kcal/mol]
V92L | 1.1 | 1.03 | 0.2 | 1.3

Variants of: B8
Settings: Homo sapiens; Thermal; fluorescence; structure 6U07; whole UniProt chain shown

Variant | Tm [°C] | change of melting temperature, mutant - wild type (higher = more stable) [°C]
S121F | 58.5 | 5.2
